Among the data in publication PMC2203988 are Kd values, retold here.

Usually Kd stands for the constant that tells how readily two partners part at equilibrium.

For this data set, the system named is U1A N-terminal RRM. The data set can be described thus: EMSA. The following applies: 10 mM Tris-HCl pH 7.4, 250 mM NaCl, 1 mM EDTA, 0.5% Triton X-100, 1 mg/mL tRNA, 25 pM RNA, at least 45 min, gel at 25 C (A6P, A6c1A and A6G of Table 3 omitted: …). (In general: A gel shift assay detects complexes by their altered migration in electrophoresis.)

Under “loop A1 to inosine”, A1I SL2 RNA gave an equilibrium dissociation constant (Kd) of 16 nM. That is a double-digit nanomolar value.
The substance A1G/C10A SL2 RNA registered a Kd of 1300 nM.
With A1G SL2 RNA, the Kd was determined as 1400 nM.
As for A6DAP SL2 RNA, the dissociation constant (Kd) (loop A6 to 2,6-diaminopurine (DAP)) is 110 nM.
On to WT SL2 RNA, for which the Kd came to 0.3 nM.
A6-2AP SL2 RNA displayed an equilibrium dissociation constant (Kd) (loop A6 to 2-aminopurine) of 700 nM.
In turn, A1-2AP SL2 RNA came in with a Kd (loop A1 to 2-aminopurine) of 40 nM.
Regarding A6I SL2 RNA, for the setting “loop A6 to inosine”, the Kd was found to be 8000 nM.
G4I SL2 RNA: the Kd (loop G4 to inosine) stood at 3 nM.
In turn, G4DAP SL2 RNA came in with a Kd (loop G4 to 2,6-diaminopurine (DAP)) of 2000 nM.
The substance G4c7dG SL2 RNA returned a Kd (loop G4 to 7-deaza-2'-deoxyguanosine (c7dG)) of 31 nM. That is a double-digit nanomolar value.
With A1P SL2 RNA, under “loop A1 to purine (6-NH2 replaced by H)”, the Kd amounted to 0.9 nM.
G4-2AP SL2 RNA: the Kd (loop G4 to 2-aminopurine) is 4000 nM.
In turn, G4A SL2 RNA had a Kd of 11000 nM.
In turn, G4dG SL2 RNA displayed a Kd (loop G4 to 2'-deoxyguanosine) of 0.11 nM.
On to C10A SL2 RNA, for which the dissociation constant (Kd) was found to be 0.6 nM.
With A1c1A SL2 RNA, the Kd (loop A1 to 1-deazaadenosine (c1A)) is 0.7 nM.
For the setting “loop A1 to 2,6-diaminopurine (DAP)”, A1DAP SL2 RNA returned a Kd of 40 nM.
